Reference: PMC10872345

Experiments:
[1] = target: Biotinylated human E-cadherin K14E mutant ectodomains (human); assay: single-molecule AFM force spectroscopy
[2] = target: Biotinylated human E-cadherin ectodomains (EC1-5), wild type (human); assay: single-molecule AFM force spectroscopy

Substance	average unbinding force [1]	unbinding force, lower peak (un-strengthened, with 40 nM 66E8 Fab) [1]	unbinding force, second peak (strengthened, with 40 nM 66E8 Fab) [1]	peak unbinding force [2]	unbinding force, lower peak (un-strengthened, with 40 nM 66E8) [2]	unbinding force, second peak (strengthened, with 40 nM 66E8) [2]
Biotinylated human E-cadherin K14E mutant ectodomains (domain or fragment)	42.8 pN	39.4 pN	62.3 pN			
Biotinylated human E-cadherin ectodomains (EC1-5), wild type (domain or fragment)				48.3 pN	45.2 pN	63.3 pN
